Test results from patent US20220017591A1 (AstraZeneca / MedImmune, published 2022).
Where two headings read alike, the source gives them in different places.

T1: human RXFP1 (human, UniProt Q9HBX9 1-757)
T1 sequence (looked up): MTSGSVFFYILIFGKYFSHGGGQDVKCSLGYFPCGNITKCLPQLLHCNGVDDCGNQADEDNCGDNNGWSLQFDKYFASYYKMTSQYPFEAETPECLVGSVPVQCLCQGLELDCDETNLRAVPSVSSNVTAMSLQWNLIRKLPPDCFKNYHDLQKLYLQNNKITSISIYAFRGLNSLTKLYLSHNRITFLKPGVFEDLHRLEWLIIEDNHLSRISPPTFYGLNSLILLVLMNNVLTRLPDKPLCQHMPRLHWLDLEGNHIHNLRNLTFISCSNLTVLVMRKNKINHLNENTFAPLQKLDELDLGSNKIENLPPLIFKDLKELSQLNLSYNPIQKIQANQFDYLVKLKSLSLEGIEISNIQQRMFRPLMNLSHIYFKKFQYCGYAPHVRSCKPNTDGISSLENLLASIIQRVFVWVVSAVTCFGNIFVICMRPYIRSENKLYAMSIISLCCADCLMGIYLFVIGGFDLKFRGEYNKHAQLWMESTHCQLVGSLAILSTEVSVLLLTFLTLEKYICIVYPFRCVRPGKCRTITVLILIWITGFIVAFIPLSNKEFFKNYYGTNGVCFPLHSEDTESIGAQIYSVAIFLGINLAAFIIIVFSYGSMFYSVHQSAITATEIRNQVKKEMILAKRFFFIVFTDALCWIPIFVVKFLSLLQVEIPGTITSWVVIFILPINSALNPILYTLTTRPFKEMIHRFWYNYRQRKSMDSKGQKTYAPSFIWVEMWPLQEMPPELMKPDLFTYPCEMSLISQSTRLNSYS

T2: mouse RXFP1 (mouse, UniProt Q6R6I7 1-758)
T2 sequence (looked up): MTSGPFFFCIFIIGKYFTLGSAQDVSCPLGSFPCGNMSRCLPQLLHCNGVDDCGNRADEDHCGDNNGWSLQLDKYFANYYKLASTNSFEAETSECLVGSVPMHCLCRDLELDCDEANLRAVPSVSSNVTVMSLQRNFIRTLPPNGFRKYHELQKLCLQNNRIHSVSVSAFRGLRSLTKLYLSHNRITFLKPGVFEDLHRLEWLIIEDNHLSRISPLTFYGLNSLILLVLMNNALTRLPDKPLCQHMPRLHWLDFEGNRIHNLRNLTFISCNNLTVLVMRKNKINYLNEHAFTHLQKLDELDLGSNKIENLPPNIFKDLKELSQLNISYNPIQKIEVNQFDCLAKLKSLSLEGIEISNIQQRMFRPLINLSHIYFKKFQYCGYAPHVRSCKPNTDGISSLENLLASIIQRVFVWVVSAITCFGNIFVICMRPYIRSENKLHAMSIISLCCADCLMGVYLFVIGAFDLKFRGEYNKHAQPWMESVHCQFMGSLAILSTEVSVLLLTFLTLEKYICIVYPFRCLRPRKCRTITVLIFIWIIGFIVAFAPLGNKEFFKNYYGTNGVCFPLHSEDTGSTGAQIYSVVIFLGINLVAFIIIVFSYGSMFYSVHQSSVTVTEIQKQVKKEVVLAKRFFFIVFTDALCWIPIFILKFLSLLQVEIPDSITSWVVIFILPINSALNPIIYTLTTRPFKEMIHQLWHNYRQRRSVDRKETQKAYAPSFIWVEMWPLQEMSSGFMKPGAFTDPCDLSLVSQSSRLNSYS


Tests used:
Assay in all cases: cell-based or functional assay
human RXFP1 [1] = target: T1, human RXFP1
human RXFP2 [2] = target: T3, human RXFP2 (human, UniProt Q8WXD0 1-754)
T3 sequence (Q8WXD0 whole entry): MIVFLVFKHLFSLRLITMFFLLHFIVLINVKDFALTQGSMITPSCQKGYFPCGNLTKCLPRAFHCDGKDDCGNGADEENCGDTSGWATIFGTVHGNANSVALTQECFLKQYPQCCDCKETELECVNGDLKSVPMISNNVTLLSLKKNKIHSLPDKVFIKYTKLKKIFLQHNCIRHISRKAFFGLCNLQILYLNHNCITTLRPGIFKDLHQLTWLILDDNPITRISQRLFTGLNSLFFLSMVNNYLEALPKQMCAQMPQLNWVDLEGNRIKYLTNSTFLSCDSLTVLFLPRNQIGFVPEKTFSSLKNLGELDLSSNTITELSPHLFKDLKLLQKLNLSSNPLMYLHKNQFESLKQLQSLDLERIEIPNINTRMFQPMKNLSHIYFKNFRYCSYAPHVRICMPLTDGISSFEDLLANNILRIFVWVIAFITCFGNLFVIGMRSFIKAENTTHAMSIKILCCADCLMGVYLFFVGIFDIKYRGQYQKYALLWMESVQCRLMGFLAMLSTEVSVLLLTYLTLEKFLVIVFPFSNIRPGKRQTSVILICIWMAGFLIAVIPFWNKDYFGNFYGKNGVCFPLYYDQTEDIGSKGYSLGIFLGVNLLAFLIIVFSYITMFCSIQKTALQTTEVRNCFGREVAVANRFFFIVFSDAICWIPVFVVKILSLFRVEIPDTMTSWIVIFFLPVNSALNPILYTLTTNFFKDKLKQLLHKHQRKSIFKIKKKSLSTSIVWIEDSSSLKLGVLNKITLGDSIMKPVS

mouse RXFP1 [3] = target: T2, mouse RXFP1
human RXFP1 [4] = target: T1, human RXFP1; remark: listed apart in the source
human RXFP2 [5] = target: T3, human RXFP2; remark: listed apart in the source
mouse RXFP1 [6] = target: T2, mouse RXFP1; remark: listed apart in the source

EC50 hRXFP1 (M), cAMP assay (human RXFP1 [1]) [M]	EC50 hRXFP2 (M), cAMP assay (human RXFP2 [2]) [M]	EC50 mRXFP1 (M), cAMP assay (mouse RXFP1 [3]) [M]	EC50 hRXFP1 (M), cAMP assay (human RXFP1 [4]) [M]	EC50 hRXFP2 (M), cAMP assay (human RXFP2 [5]) [M]	EC50 mRXFP1 (M), cAMP assay (mouse RXFP1 [6]) [M]	Binder
6.54e-11	1.08e-07	4.25e-11	–	–	–	RELAX0039 (Fc fusion) chain 1: DKTHTACPPCPAPEFEGGPSVFLFPPKPKDTLMISRTPEVTCVVVDVSHEDPEVKFNWYVDGVEVHNAKTKPREEQYNSTYRVVSVLTVLHQDWLNGKEYKCKVSNKALPASIEKTISKAKGQPREPQVYTLPPCREEMTKNQVSLWCLVKGFYPSDIAVEWESNGQPENNYKTTPPVLDSDGSFFLYSKLTVDKSRWQQGNVFSCSVMHEALHNHYTQKSLSLSPGGGGGSGGGGSGGGGSGGGGGSQLYSALANMCCHVGCTKRSLARFC chain 2: DKTHTCPPCPAPEFEGGPSVFLFPPKPKDTLMISRTPEVTCVVVDVSHEDPEVKFNWYVDGVEVHNAKTKPREEQYNSTYRVVSVLTVLHQDWLNGKEYKCKVSNKALPASIEKTISKAKGQPREPQVCTLPPSREEMTKNQVSLSCAVKGFYPSDIAVEWESNGQPENNYKTTPPVLDSDGSFFLVSKLTVDKSRWQQGNVFSCSVMHEALHNHYTQKSLSLSPGGGGGSGGGGSGGGGSGGGGGSSWMEEVIKLCGRELVRAQIAICGMSTWS
5.92e-11	> 1.27e-07	2.92e-11	–	–	–	RELAX0040 (Fc fusion) chain 1: DKTHTACPPCPAPEFEGGPSVFLFPPKPKDTLMISRTPEVTCVVVDVSHEDPEVKFNWYVDGVEVHNAKTKPREEQYNSTYRVVSVLTVLHQDWLNGKEYKCKVSNKALPASIEKTISKAKGQPREPQVYTLPPCREEMTKNQVSLWCLVKGFYPSDIAVEWESNGQPENNYKTTPPVLDSDGSFFLYSKLTVDKSRWQQGNVFSCSVMHEALHNHYTQKSLSLSPGGGGGSGGGGSGGGGSGGGGGSQLYSALANLCCHVGCTKRSLARFC chain 2: DKTHTCPPCPAPEFEGGPSVFLFPPKPKDTLMISRTPEVTCVVVDVSHEDPEVKFNWYVDGVEVHNAKTKPREEQYNSTYRVVSVLTVLHQDWLNGKEYKCKVSNKALPASIEKTISKAKGQPREPQVCTLPPSREEMTKNQVSLSCAVKGFYPSDIAVEWESNGQPENNYKTTPPVLDSDGSFFLVSKLTVDKSRWQQGNVFSCSVMHEALHNHYTQKSLSLSPGGGGGSGGGGSGGGGSGGGGGSSWMEEVIKLCGRELVRAQIAICGMSTWS
6.22e-11	1.18e-07	3.17e-11	–	–	–	RELAX0041 (Fc fusion) chain 1: DKTHTACPPCPAPEFEGGPSVFLFPPKPKDTLMISRTPEVTCVVVDVSHEDPEVKFNWYVDGVEVHNAKTKPREEQYNSTYRVVSVLTVLHQDWLNGKEYKCKVSNKALPASIEKTISKAKGQPREPQVYTLPPCREEMTKNQVSLWCLVKGFYPSDIAVEWESNGQPENNYKTTPPVLDSDGSFFLYSKLTVDKSRWQQGNVFSCSVMHEALHNHYTQKSLSLSPGGGGGSGGGGSGGGGSGGGGGSQLYSALANHCCHVGCTKRSLARFC chain 2: DKTHTCPPCPAPEFEGGPSVFLFPPKPKDTLMISRTPEVTCVVVDVSHEDPEVKFNWYVDGVEVHNAKTKPREEQYNSTYRVVSVLTVLHQDWLNGKEYKCKVSNKALPASIEKTISKAKGQPREPQVCTLPPSREEMTKNQVSLSCAVKGFYPSDIAVEWESNGQPENNYKTTPPVLDSDGSFFLVSKLTVDKSRWQQGNVFSCSVMHEALHNHYTQKSLSLSPGGGGGSGGGGSGGGGSGGGGGSSWMEEVIKLCGRELVRAQIAICGMSTWS
7.98e-11	> 1.58e-07	5.58e-11	–	–	–	RELAX0043 (Fc fusion) chain 1: DKTHTACPPCPAPEFEGGPSVFLFPPKPKDTLMISRTPEVTCVVVDVSHEDPEVKFNWYVDGVEVHNAKTKPREEQYNSTYRVVSVLTVLHQDWLNGKEYKCKVSNKALPASIEKTISKAKGQPREPQVYTLPPCREEMTKNQVSLWCLVKGFYPSDIAVEWESNGQPENNYKTTPPVLDSDGSFFLYSKLTVDKSRWQQGNVFSCSVMHEALHNHYTQKSLSLSPGGGGGSGGGGSGGGGSGGGGGSQLYSALANECCHVGCTKRSLARFC chain 2: DKTHTCPPCPAPEFEGGPSVFLFPPKPKDTLMISRTPEVTCVVVDVSHEDPEVKFNWYVDGVEVHNAKTKPREEQYNSTYRVVSVLTVLHQDWLNGKEYKCKVSNKALPASIEKTISKAKGQPREPQVCTLPPSREEMTKNQVSLSCAVKGFYPSDIAVEWESNGQPENNYKTTPPVLDSDGSFFLVSKLTVDKSRWQQGNVFSCSVMHEALHNHYTQKSLSLSPGGGGGSGGGGSGGGGSGGGGGSSWMEEVIKLCGRELVRAQIAICGMSTWS
7.15e-11	> 1.79e-07	4.36e-11	–	–	–	RELAX0053 (Fc fusion) chain 1: DKTHTACPPCPAPEFEGGPSVFLFPPKPKDTLMISRTPEVTCVVVDVSHEDPEVKFNWYVDGVEVHNAKTKPREEQYNSTYRVVSVLTVLHQDWLNGKEYKCKVSNKALPASIEKTISKAKGQPREPQVYTLPPCREEMTKNQVSLWCLVKGFYPSDIAVEWESNGQPENNYKTTPPVLDSDGSFFLYSKLTVDKSRWQQGNVFSCSVMHEALHNHYTQKSLSLSPGGGGGSGGGGSGGGGSGGGGGSQLYSALANKCCHVGCTKHSLARFC chain 2: DKTHTCPPCPAPEFEGGPSVFLFPPKPKDTLMISRTPEVTCVVVDVSHEDPEVKFNWYVDGVEVHNAKTKPREEQYNSTYRVVSVLTVLHQDWLNGKEYKCKVSNKALPASIEKTISKAKGQPREPQVCTLPPSREEMTKNQVSLSCAVKGFYPSDIAVEWESNGQPENNYKTTPPVLDSDGSFFLVSKLTVDKSRWQQGNVFSCSVMHEALHNHYTQKSLSLSPGGGGGSGGGGSGGGGSGGGGGSSWMEEVIKLCGRELVRAQIAICGMSTWS
9.67e-11	1.05e-07	5.69e-11	–	–	–	RELAX0052 (Fc fusion) chain 1: DKTHTACPPCPAPEFEGGPSVFLFPPKPKDTLMISRTPEVTCVVVDVSHEDPEVKFNWYVDGVEVHNAKTKPREEQYNSTYRVVSVLTVLHQDWLNGKEYKCKVSNKALPASIEKTISKAKGQPREPQVYTLPPCREEMTKNQVSLWCLVKGFYPSDIAVEWESNGQPENNYKTTPPVLDSDGSFFLYSKLTVDKSRWQQGNVFSCSVMHEALHNHYTQKSLSLSPGGGGGSGGGGSGGGGSGGGGGSQLYSALANKCCHVGCTKESLARFC chain 2: DKTHTCPPCPAPEFEGGPSVFLFPPKPKDTLMISRTPEVTCVVVDVSHEDPEVKFNWYVDGVEVHNAKTKPREEQYNSTYRVVSVLTVLHQDWLNGKEYKCKVSNKALPASIEKTISKAKGQPREPQVCTLPPSREEMTKNQVSLSCAVKGFYPSDIAVEWESNGQPENNYKTTPPVLDSDGSFFLVSKLTVDKSRWQQGNVFSCSVMHEALHNHYTQKSLSLSPGGGGGSGGGGSGGGGSGGGGGSSWMEEVIKLCGRELVRAQIAICGMSTWS
–	–	–	1.93e-09	> 6.06e-08	1.24e-09	RELAX0111 (Fc fusion) chain 1: DKTHTCPPCPAPEFEGGPSVFLFPPKPKDTLMISRTPEVTCVVVDVSHEDPEVKFNWYVDGVEVHNAKTKPREEQYNSTYRVVSVLTVLHQDWLNGKEYKCKVSNKALPASIEKTISKAKGQPREPQVYTLPPCREEMTKNQVSLWCLVKGFYPSDIAVEWESNGQPENNYKTTPPVLDSDGSFFLYSKLTVDKSRWQQGNVFSCSVMHEALHNHYTQKSLSLSPGGGGGGSQLYSALANKCCHVGCTKRSLARFC chain 2: DKTHTCPPCPAPEFEGGPSVFLFPPKPKDTLMISRTPEVTCVVVDVSHEDPEVKFNWYVDGVEVHNAKTKPREEQYNSTYRVVSVLTVLHQDWLNGKEYKCKVSNKALPASIEKTISKAKGQPREPQVYTLPPCREEMTKNQVSLWCLVKGFYPSDIAVEWESNGQPENNYKTTPPVLDSDGSFFLYSKLTVDKSRWQQGNVFSCSVMHEALHNHYTQKSLSLSPGAAPAPAPAPAPAPAGSSWMEEVIKLCGRELVRAQIAICGMSTWS
